According to patent US20120201746A1 (AbbVie / Abbott, published 2012):

These binders were tested against T1, Neonatal Fc receptor (FcRn) on CHO-FcRnGPI cells (assay: flow cytometry on CHO-FcRnGPI cells, pH 6.4).
T1 construct: whole, on cells; also called FcRn receptor
Experimental: CHO-FcRnGPI cells (Stable FcRn receptor expressor) and CHO-pBudl l cells (non-FcRn expressor) were aliquotted into 96-well plates at 1×10⁵ cells/well. Cells were resuspended in 150 μl FACS buffer. Anti-c-Met Ab and half-Ig binding proteins were diluted to 100 μg/ml in FACS buffer pH 6.4 and pH 7.4. 30 μl of diluted antibody or half-Ig binding protein was added to each well and incubated on ice for 1 hour. Following 2 washes with FACS buffer, 50 μl of secondary antibody R-phycoerythrin-conjugated AfiniPure F(ab′)₂ Fragment goat anti-human IgG (Jackson ImmunoResearch®, West Grove, Pa.) diluted in FACS buffer pH 6.4 or pH7.4 was added. The mixture was incubated for 30 min on ice. The cells were resuspended in 100 μl PBS with 1% FBS (Invitrogen®, Carlsbad, Calif.) and 2 μg/ml propidium iodide (Invitrogen®, Carlsbad, Calif.) of the corresponding pH. Final FACS data were acquired on a FACScan (Becton Dickinson, Franklin Lakes, N.J.).

Row | EC50 | Binder
1 | 1.09 µM | cMet-Mut1 (antibody, human IgG1, kappa, also called cMetHC-Mut1) heavy: not shown light: DFMMSQSPSSLTVSVGEKVTVSCKSSQSLLYTSSQKNYLAWYQQKPGQSPKLLIYWASTRESGVPDRFTGSGSGTDFTLTITSVKADDLAVYYCQQYYAYPWTFGGGTKLELKRTVAAPSVFIFPPSDEQLKSGTASVVCLLNNFYPREAKVQWKVDNALQSGNSQESVTEQDSKDSTYSLSSTLTLSKADYEKHKVYACEVTHQGLSSPVTKSFNRGEC
2 | 1.13 µM | cMet-Mut3 (antibody, human IgG1, kappa, Half-Ig; CH3 T366F, L368F, P395A, F405R, Y407R, K409D; 82.4 % half-Ig by SEC; also called cMetHC-Mut3) heavy: QVQLQQSGPELVRPGASVKMSCRASGYTFTSYWLHWVKQRPGQGLEWIGMIDPSNSDTRFNPNFKDKATLNVDRSSNTAYMLLSSLTSADSAVYYCATYGSYVSPLDYWGQGTSVTVSSASTKGPSVFPLAPSSKSTSGGTAALGCLVKDYFPEPVTVSWNSGALTSGVHTFPAVLQSSGLYSLSSVVTVPSSSLGTQTYICNVNHKPSNTKVDKKVEPKSCDKTHTSPPSPAPELLGGPSVFLFPPKPKDTLMISRTPEVTCVVVDVSHEDPEVKFNWYVDGVEVHNAKTKPREEQYNSTYRVVSVLTVLHQDWLNGKEYKCKVSNKALPAPIEKTISKAKGQPREPQVYTLPPSREEMTKNQVSLFCFVKGFYPSDIAVEWESNGQPENNYKTTPAVLDSDGSFRLRSDLTVDKSRWQQGNVFSCSVMHEALHNHYTQKSLSLSPGK light: DFMMSQSPSSLTVSVGEKVTVSCKSSQSLLYTSSQKNYLAWYQQKPGQSPKLLIYWASTRESGVPDRFTGSGSGTDFTLTITSVKADDLAVYYCQQYYAYPWTFGGGTKLELKRTVAAPSVFIFPPSDEQLKSGTASVVCLLNNFYPREAKVQWKVDNALQSGNSQESVTEQDSKDSTYSLSSTLTLSKADYEKHKVYACEVTHQGLSSPVTKSFNRGEC
3 | 1.45 µM | cMet-Mut14 (antibody, human IgG1, kappa, Half-Ig; CH3 F405R, Y407R; 96.1 % half-Ig by SEC; also called cMetHC-Mut14; cMet half Ig mut14) heavy: QVQLQQSGPELVRPGASVKMSCRASGYTFTSYWLHWVKQRPGQGLEWIGMIDPSNSDTRFNPNFKDKATLNVDRSSNTAYMLLSSLTSADSAVYYCATYGSYVSPLDYWGQGTSVTVSSASTKGPSVFPLAPSSKSTSGGTAALGCLVKDYFPEPVTVSWNSGALTSGVHTFPAVLQSSGLYSLSSVVTVPSSSLGTQTYICNVNHKPSNTKVDKKVEPKSCDKTHTSPPSPAPELLGGPSVFLFPPKPKDTLMISRTPEVTCVVVDVSHEDPEVKFNWYVDGVEVHNAKTKPREEQYNSTYRVVSVLTVLHQDWLNGKEYKCKVSNKALPAPIEKTISKAKGQPREPQVYTLPPSREEMTKNQVSLTCLVKGFYPSDIAVEWESNGQPENNYKTTPPVLDSDGSFRLRSKLTVDKSRWQQGNVFSCSVMHEALHNHYTQKSLSLSPGK light: DFMMSQSPSSLTVSVGEKVTVSCKSSQSLLYTSSQKNYLAWYQQKPGQSPKLLIYWASTRESGVPDRFTGSGSGTDFTLTITSVKADDLAVYYCQQYYAYPWTFGGGTKLELKRTVAAPSVFIFPPSDEQLKSGTASVVCLLNNFYPREAKVQWKVDNALQSGNSQESVTEQDSKDSTYSLSSTLTLSKADYEKHKVYACEVTHQGLSSPVTKSFNRGEC
4 | 293 µM | cMet-Mut10 (antibody, human IgG1, kappa, Half-Ig; CH3 P395A, F405R, K409D; 97.5 % half-Ig by SEC; also called cMetHC-Mut10; cMet half Ig mut10) heavy: QVQLQQSGPELVRPGASVKMSCRASGYTFTSYWLHWVKQRPGQGLEWIGMIDPSNSDTRFNPNFKDKATLNVDRSSNTAYMLLSSLTSADSAVYYCATYGSYVSPLDYWGQGTSVTVSSASTKGPSVFPLAPSSKSTSGGTAALGCLVKDYFPEPVTVSWNSGALTSGVHTFPAVLQSSGLYSLSSVVTVPSSSLGTQTYICNVNHKPSNTKVDKKVEPKSCDKTHTSPPSPAPELLGGPSVFLFPPKPKDTLMISRTPEVTCVVVDVSHEDPEVKFNWYVDGVEVHNAKTKPREEQYNSTYRVVSVLTVLHQDWLNGKEYKCKVSNKALPAPIEKTISKAKGQPREPQVYTLPPSREEMTKNQVSLTCLVKGFYPSDIAVEWESNGQPENNYKTTPAVLDSDGSFRLYSDLTVDKSRWQQGNVFSCSVMHEALHNHYTQKSLSLSPGK light: DFMMSQSPSSLTVSVGEKVTVSCKSSQSLLYTSSQKNYLAWYQQKPGQSPKLLIYWASTRESGVPDRFTGSGSGTDFTLTITSVKADDLAVYYCQQYYAYPWTFGGGTKLELKRTVAAPSVFIFPPSDEQLKSGTASVVCLLNNFYPREAKVQWKVDNALQSGNSQESVTEQDSKDSTYSLSSTLTLSKADYEKHKVYACEVTHQGLSSPVTKSFNRGEC
5 | 3290 µM | cMet-Mut5 (antibody, human IgG1, kappa, Half-Ig; CH3 P395A, F405R, Y407R, K409D; 97.2 % half-Ig by SEC; also called cMetHC-Mut5) heavy: QVQLQQSGPELVRPGASVKMSCRASGYTFTSYWLHWVKQRPGQGLEWIGMIDPSNSDTRFNPNFKDKATLNVDRSSNTAYMLLSSLTSADSAVYYCATYGSYVSPLDYWGQGTSVTVSSASTKGPSVFPLAPSSKSTSGGTAALGCLVKDYFPEPVTVSWNSGALTSGVHTFPAVLQSSGLYSLSSVVTVPSSSLGTQTYICNVNHKPSNTKVDKKVEPKSCDKTHTSPPSPAPELLGGPSVFLFPPKPKDTLMISRTPEVTCVVVDVSHEDPEVKFNWYVDGVEVHNAKTKPREEQYNSTYRVVSVLTVLHQDWLNGKEYKCKVSNKALPAPIEKTISKAKGQPREPQVYTLPPSREEMTKNQVSLTCLVKGFYPSDIAVEWESNGQPENNYKTTPAVLDSDGSFRLRSDLTVDKSRWQQGNVFSCSVMHEALHNHYTQKSLSLSPGK light: DFMMSQSPSSLTVSVGEKVTVSCKSSQSLLYTSSQKNYLAWYQQKPGQSPKLLIYWASTRESGVPDRFTGSGSGTDFTLTITSVKADDLAVYYCQQYYAYPWTFGGGTKLELKRTVAAPSVFIFPPSDEQLKSGTASVVCLLNNFYPREAKVQWKVDNALQSGNSQESVTEQDSKDSTYSLSSTLTLSKADYEKHKVYACEVTHQGLSSPVTKSFNRGEC
6 | 4700 µM | cMet-Mut11 (antibody, human IgG1, kappa, Half-Ig; CH3 P395A, F405R; 94.8 % half-Ig by SEC; also called cMetHC-Mut11; cMet half Ig mut11) heavy: QVQLQQSGPELVRPGASVKMSCRASGYTFTSYWLHWVKQRPGQGLEWIGMIDPSNSDTRFNPNFKDKATLNVDRSSNTAYMLLSSLTSADSAVYYCATYGSYVSPLDYWGQGTSVTVSSASTKGPSVFPLAPSSKSTSGGTAALGCLVKDYFPEPVTVSWNSGALTSGVHTFPAVLQSSGLYSLSSVVTVPSSSLGTQTYICNVNHKPSNTKVDKKVEPKSCDKTHTSPPSPAPELLGGPSVFLFPPKPKDTLMISRTPEVTCVVVDVSHEDPEVKFNWYVDGVEVHNAKTKPREEQYNSTYRVVSVLTVLHQDWLNGKEYKCKVSNKALPAPIEKTISKAKGQPREPQVYTLPPSREEMTKNQVSLTCLVKGFYPSDIAVEWESNGQPENNYKTTPAVLDSDGSFRLYSKLTVDKSRWQQGNVFSCSVMHEALHNHYTQKSLSLSPGK light: DFMMSQSPSSLTVSVGEKVTVSCKSSQSLLYTSSQKNYLAWYQQKPGQSPKLLIYWASTRESGVPDRFTGSGSGTDFTLTITSVKADDLAVYYCQQYYAYPWTFGGGTKLELKRTVAAPSVFIFPPSDEQLKSGTASVVCLLNNFYPREAKVQWKVDNALQSGNSQESVTEQDSKDSTYSLSSTLTLSKADYEKHKVYACEVTHQGLSSPVTKSFNRGEC
7 | 2.98 µM | cMet-Mut19 (antibody, human IgG1, kappa, Half-Ig; CH3 Y407R; 94.4 % half-Ig by SEC; also called cMetHC-Mut19) heavy: QVQLQQSGPELVRPGASVKMSCRASGYTFTSYWLHWVKQRPGQGLEWIGMIDPSNSDTRFNPNFKDKATLNVDRSSNTAYMLLSSLTSADSAVYYCATYGSYVSPLDYWGQGTSVTVSSASTKGPSVFPLAPSSKSTSGGTAALGCLVKDYFPEPVTVSWNSGALTSGVHTFPAVLQSSGLYSLSSVVTVPSSSLGTQTYICNVNHKPSNTKVDKKVEPKSCDKTHTSPPSPAPELLGGPSVFLFPPKPKDTLMISRTPEVTCVVVDVSHEDPEVKFNWYVDGVEVHNAKTKPREEQYNSTYRVVSVLTVLHQDWLNGKEYKCKVSNKALPAPIEKTISKAKGQPREPQVYTLPPSREEMTKNQVSLTCLVKGFYPSDIAVEWESNGQPENNYKTTPPVLDSDGSFFLRSKLTVDKSRWQQGNVFSCSVMHEALHNHYTQKSLSLSPGK light: DFMMSQSPSSLTVSVGEKVTVSCKSSQSLLYTSSQKNYLAWYQQKPGQSPKLLIYWASTRESGVPDRFTGSGSGTDFTLTITSVKADDLAVYYCQQYYAYPWTFGGGTKLELKRTVAAPSVFIFPPSDEQLKSGTASVVCLLNNFYPREAKVQWKVDNALQSGNSQESVTEQDSKDSTYSLSSTLTLSKADYEKHKVYACEVTHQGLSSPVTKSFNRGEC
8 | 0.63 µM | cMet-Mut13 (antibody, human IgG1, kappa, Half-Ig; CH3 P395A, K409D; 94.9 % half-Ig by SEC; also called cMetHC-Mut13) heavy: QVQLQQSGPELVRPGASVKMSCRASGYTFTSYWLHWVKQRPGQGLEWIGMIDPSNSDTRFNPNFKDKATLNVDRSSNTAYMLLSSLTSADSAVYYCATYGSYVSPLDYWGQGTSVTVSSASTKGPSVFPLAPSSKSTSGGTAALGCLVKDYFPEPVTVSWNSGALTSGVHTFPAVLQSSGLYSLSSVVTVPSSSLGTQTYICNVNHKPSNTKVDKKVEPKSCDKTHTSPPSPAPELLGGPSVFLFPPKPKDTLMISRTPEVTCVVVDVSHEDPEVKFNWYVDGVEVHNAKTKPREEQYNSTYRVVSVLTVLHQDWLNGKEYKCKVSNKALPAPIEKTISKAKGQPREPQVYTLPPSREEMTKNQVSLTCLVKGFYPSDIAVEWESNGQPENNYKTTPAVLDSDGSFFLYSDLTVDKSRWQQGNVFSCSVMHEALHNHYTQKSLSLSPGK light: DFMMSQSPSSLTVSVGEKVTVSCKSSQSLLYTSSQKNYLAWYQQKPGQSPKLLIYWASTRESGVPDRFTGSGSGTDFTLTITSVKADDLAVYYCQQYYAYPWTFGGGTKLELKRTVAAPSVFIFPPSDEQLKSGTASVVCLLNNFYPREAKVQWKVDNALQSGNSQESVTEQDSKDSTYSLSSTLTLSKADYEKHKVYACEVTHQGLSSPVTKSFNRGEC
9 | 1980 µM | cMet-Mut18 (antibody, human IgG1, kappa, Half-Ig; CH3 F405R; 94.5 % half-Ig by SEC; also called cMetHC-Mut18; cMet half Ig mut18) heavy: QVQLQQSGPELVRPGASVKMSCRASGYTFTSYWLHWVKQRPGQGLEWIGMIDPSNSDTRFNPNFKDKATLNVDRSSNTAYMLLSSLTSADSAVYYCATYGSYVSPLDYWGQGTSVTVSSASTKGPSVFPLAPSSKSTSGGTAALGCLVKDYFPEPVTVSWNSGALTSGVHTFPAVLQSSGLYSLSSVVTVPSSSLGTQTYICNVNHKPSNTKVDKKVEPKSCDKTHTSPPSPAPELLGGPSVFLFPPKPKDTLMISRTPEVTCVVVDVSHEDPEVKFNWYVDGVEVHNAKTKPREEQYNSTYRVVSVLTVLHQDWLNGKEYKCKVSNKALPAPIEKTISKAKGQPREPQVYTLPPSREEMTKNQVSLTCLVKGFYPSDIAVEWESNGQPENNYKTTPPVLDSDGSFRLYSKLTVDKSRWQQGNVFSCSVMHEALHNHYTQKSLSLSPGK light: DFMMSQSPSSLTVSVGEKVTVSCKSSQSLLYTSSQKNYLAWYQQKPGQSPKLLIYWASTRESGVPDRFTGSGSGTDFTLTITSVKADDLAVYYCQQYYAYPWTFGGGTKLELKRTVAAPSVFIFPPSDEQLKSGTASVVCLLNNFYPREAKVQWKVDNALQSGNSQESVTEQDSKDSTYSLSSTLTLSKADYEKHKVYACEVTHQGLSSPVTKSFNRGEC
